Measurements reported in PMC7498356.
Where a chain is given by its changes, count along the chain named.

T1: AT3G52980-LOTUS (plant, UniProt Q9LF94 199-282)
T1 sequence: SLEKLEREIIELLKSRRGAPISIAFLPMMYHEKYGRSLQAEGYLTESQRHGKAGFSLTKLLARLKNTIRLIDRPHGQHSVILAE

T2: TDRD7 L1 (Mus musculus, UniProt Q8K1H1 3-76)
T2 sequence: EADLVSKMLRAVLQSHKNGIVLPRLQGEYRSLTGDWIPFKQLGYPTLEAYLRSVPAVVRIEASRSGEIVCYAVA

T3: human MARF1 L7 (Homo sapiens, UniProt Q9Y4F3 1411-1485)
T3 sequence: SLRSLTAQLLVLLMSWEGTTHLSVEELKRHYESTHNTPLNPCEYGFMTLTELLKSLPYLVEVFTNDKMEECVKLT

T4: TDRD7 L2 (Mus musculus, UniProt Q8K1H1 222-291)
T4 sequence: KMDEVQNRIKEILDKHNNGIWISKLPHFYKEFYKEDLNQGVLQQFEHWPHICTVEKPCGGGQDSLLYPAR

T5: TP0894-LOTUS (Treponema pallidum subsp. pallidum str. …, UniProt O83864 178-253)
T5 sequence: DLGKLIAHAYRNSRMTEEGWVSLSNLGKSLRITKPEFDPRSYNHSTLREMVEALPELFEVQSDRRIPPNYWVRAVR

T6: Oskar LOTUS (eLOTUS) (Drosophila, UniProt P25158 139-241)
T6 sequence: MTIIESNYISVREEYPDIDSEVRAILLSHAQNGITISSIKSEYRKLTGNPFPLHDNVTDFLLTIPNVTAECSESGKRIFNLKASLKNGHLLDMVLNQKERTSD

T7: TDRD7 L3 (Mus musculus, UniProt Q8K1H1 325-394)
T7 sequence: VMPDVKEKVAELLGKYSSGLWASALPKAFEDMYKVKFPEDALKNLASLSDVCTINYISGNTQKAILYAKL

T8: human MARF1 L1 (Homo sapiens, UniProt Q9Y4F3 875-949)
T8 sequence: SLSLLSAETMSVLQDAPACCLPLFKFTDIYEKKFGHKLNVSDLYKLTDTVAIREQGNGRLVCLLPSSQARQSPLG

T9: Tejas LOTUS (Drosophila, UniProt A1Z9P1 6-79)
T9 sequence: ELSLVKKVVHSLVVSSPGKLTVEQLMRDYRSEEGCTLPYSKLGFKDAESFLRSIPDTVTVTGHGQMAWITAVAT

T10: human TDRD5 L1 (Homo sapiens, UniProt Q8NAT2 7-80)
T10 sequence: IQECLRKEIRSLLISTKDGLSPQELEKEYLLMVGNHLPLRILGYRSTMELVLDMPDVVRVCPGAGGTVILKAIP

T11: TDRD5 LOTUS domain 1 (L1) (Mus musculus, UniProt Q5VCS6 7-80)
T11 sequence: T10 sequence with E3D, S21T, E24Q, R59S, A64G, G65D

T12: TDRD5 LOTUS domain 2 (L2) (Mus musculus, UniProt Q5VCS6 122-197)
T12 sequence: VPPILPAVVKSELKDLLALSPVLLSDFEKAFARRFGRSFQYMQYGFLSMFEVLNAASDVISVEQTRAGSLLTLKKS

T13: TDRD5 LOTUS domain 3 (L3) (Mus musculus, UniProt Q5VCS6 291-365)
T13 sequence: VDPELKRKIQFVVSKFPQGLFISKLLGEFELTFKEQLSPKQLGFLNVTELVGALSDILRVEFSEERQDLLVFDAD

B1: TERRA G4 RNA (structured_RNA)
RNA: UUAGGGUUAGGGUUAGGGUUAGGG
B2: TERRA G4 mut RNA (ssRNA)
RNA: UUACCGUUACCGUUACCGUUACCG
B3: Cluster G4-1 mut RNA (ssRNA)
RNA: GGUCCGCAGCCGAGUCCGGGUCCG
B4: Poly(A) (ssRNA)
RNA: AAAAAAAAAAAAAAAAAAA
B5: Poly(U) (ssRNA)
RNA: UUUUUUUUUUUUUUUUUUU
B6: Cluster G4-2 RNA (structured_RNA)
RNA: AGGAGGGAAGGGGAGGGGAGGG
B7: Poly(CU) (ssRNA)
RNA: CUCUCUCUCUCUCUCUCUCUCUCUCUCUCU
B8: Poly(CA) (ssRNA)
RNA: CACACACACACACACACACACACACACACA
B9: Cluster G4-2 mut RNA (ssRNA)
RNA: AGGACCGAAGCCGAGCCGAGCC
B10: Poly(GU) (ssRNA)
RNA: GUGUGUGUGUGUGUGUGUGUGUGUGUGUGU
B11: Poly(GA) (ssRNA)
RNA: GAGAGAGAGAGAGAGAGAGAGAGAGAGAGA

These binders were tested against T1, AT3G52980-LOTUS (assay: ELISA).

Q: Does B1 bind?
A: Result: binds

Q: Does B2 bind?
A: Result: no binding

Q: Does B3 bind?
A: Result: no binding

These binders were tested against human TDRD7 L1 (Homo sapiens, UniProt Q8NHU6 3-76) (assay: ELISA).
Chain of human TDRD7 L1 (Q8NHU6 3-76): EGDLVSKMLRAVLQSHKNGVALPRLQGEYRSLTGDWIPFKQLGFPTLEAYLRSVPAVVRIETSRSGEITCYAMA

Q: Does B1 bind?
A: Result: binds

Q: Does B2 bind?
A: Result: no binding

Q: Does B3 bind?
A: Result: no binding

These binders were tested against T2, TDRD7 L1 (assay: ELISA).

Q: Does B1 bind?
A: Result: binds

Q: Does B2 bind?
A: Result: no binding

Q: Does B3 bind?
A: Result: no binding

Each binder was assayed against T3, human MARF1 L7 (assay: ELISA).

Q: Does B1 bind?
A: Result: binds

Q: Does B2 bind?
A: Result: no binding

Q: Does B3 bind?
A: Result: no binding

What follows are binders tested against T4, TDRD7 L2 (assay: ELISA).

Q: Does B1 bind?
A: Result: binds

Q: Does B2 bind?
A: Result: no binding

Q: Does B3 bind?
A: Result: no binding

These binders were tested against T5, TP0894-LOTUS (assay: ELISA).

Q: Does B1 bind?
A: Result: binds

Q: Does B2 bind?
A: Result: no binding

Q: Does B3 bind?
A: Result: no binding

These binders were tested against T6, Oskar LOTUS (eLOTUS) (assay: ELISA).

Q: Does B1 bind?
A: Result: binds

Q: Does B2 bind?
A: Result: no binding

Q: Does B3 bind?
A: Result: no binding

Each binder was assayed against T7, TDRD7 L3 (assay: ELISA).

Q: Does B1 bind?
A: Result: binds

Q: Does B2 bind?
A: Result: no binding

Q: Does B3 bind?
A: Result: no binding

Each binder was assayed against T8, human MARF1 L1 (assay: ELISA).

Q: Does B1 bind?
A: Result: binds

Q: Does B2 bind?
A: Result: no binding

Q: Does B3 bind?
A: Result: no binding

The binders below were run against T9, Tejas LOTUS (assay: ELISA).

Q: Does B1 bind?
A: Result: binds

Q: Does B2 bind?
A: Result: no binding

Q: Does B3 bind?
A: Result: no binding

These binders were tested against T10, human TDRD5 L1 (assay: ELISA).

Q: Does B1 bind?
A: Result: binds

Q: Does B2 bind?
A: Result: no binding

Q: Does B3 bind?
A: Result: no binding

These binders were tested against T11, TDRD5 LOTUS domain 1 (L1) (assay: pull-down, ELISA).

Q: Does B4 bind?
A: Result: no binding

Q: Does B5 bind?
A: Result: no binding

The binders below were run against T12, TDRD5 LOTUS domain 2 (L2) (assay: pull-down, ELISA).

Q: Does B4 bind?
A: Result: no binding

Q: Does B5 bind?
A: Result: no binding

Each binder was assayed against T13, TDRD5 LOTUS domain 3 (L3) (assay: pull-down, ELISA).

Q: Does B1 bind?
A: Result: no binding

Q: Does B4 bind?
A: Result: no binding

Q: Does B5 bind?
A: Result: no binding

Q: Does B6 bind?
A: Result: no binding

Each binder was assayed against T11, TDRD5 LOTUS domain 1 (L1) (assay: pull-down).

Q: Does B2 bind?
A: Result: no binding

Q: Does B3 bind?
A: Result: no binding

Q: Does B7 bind?
A: Result: no binding

Q: Does B8 bind?
A: Result: no binding

Q: Does B9 bind?
A: Result: no binding

These binders were tested against T12, TDRD5 LOTUS domain 2 (L2) (assay: pull-down).

Q: Does B2 bind?
A: Result: no binding

Q: Does B3 bind?
A: Result: no binding

Q: Does B7 bind?
A: Result: no binding

Q: Does B8 bind?
A: Result: no binding

Q: Does B9 bind?
A: Result: no binding

Each binder was assayed against T13, TDRD5 LOTUS domain 3 (L3) (assay: pull-down).

Q: Does B2 bind?
A: Result: no binding

Q: Does B3 bind?
A: Result: no binding

Q: Does B7 bind?
A: Result: no binding

Q: Does B8 bind?
A: Result: no binding

Q: Does B10 bind?
A: Result: no binding

Q: Does B11 bind?
A: Result: no binding

Q: Does B9 bind?
A: Result: no binding
